This passage reports value of the horizontal bar in the flow cytometric histogram (Protein L staining) results from patent publication US20180346544A1.

For the assay, the target named is CD276.MG.BB.z CAR (SEQ ID NO: 12). Briefly: flow cytometry, Protein L staining of T cells cultured with CD276.MG.BB.z vector supernatant; the mock-transduced panel gives 2.56. (In flow cytometry, cells or beads pass a laser one at a time.)
CD276.MG.BB.z CAR (SEQ ID NO: 12), sequence (chain, as listed by the source, form in doubt): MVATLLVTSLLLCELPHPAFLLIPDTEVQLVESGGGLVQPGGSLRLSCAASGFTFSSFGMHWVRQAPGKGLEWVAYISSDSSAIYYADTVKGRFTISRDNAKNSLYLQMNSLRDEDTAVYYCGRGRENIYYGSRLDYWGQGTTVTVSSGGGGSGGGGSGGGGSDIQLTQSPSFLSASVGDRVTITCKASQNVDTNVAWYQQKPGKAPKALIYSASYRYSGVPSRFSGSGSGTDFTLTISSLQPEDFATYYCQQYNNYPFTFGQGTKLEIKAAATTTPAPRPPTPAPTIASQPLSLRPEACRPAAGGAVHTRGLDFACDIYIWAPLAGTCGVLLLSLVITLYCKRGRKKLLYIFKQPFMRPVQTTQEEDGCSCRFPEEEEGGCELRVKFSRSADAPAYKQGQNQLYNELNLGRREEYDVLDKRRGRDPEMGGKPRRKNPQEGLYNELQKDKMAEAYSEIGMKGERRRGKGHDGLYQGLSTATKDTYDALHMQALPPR

Substance Protein L registered a value of the horizontal bar in the flow cytometric histogram (Protein L staining) of 54.7.
